Assay results reported in patent US20170183640A1 (WISCONSIN ALUMNI RESEARCH FOUNDATION, published 2017).

What was measured:
[1] = target: the molecule itself; assay: ultracentrifugation, self-association (dimerization)
[2] = target: the molecule itself; assay: DSG crosslinking, SDS-PAGE (FIG. 7), self-association
From the text: (§1) The crosslinking covalently traps Ref in oligomeric states. […] Cys11 is responsible for dimerization of the P1 Ref protein.
In order to determine the role of Cys11, a φW39 R11C variant was constructed and purified. […] The truncation variants' monomeric state was verified by analytical size exclusion (FIG. 9).

[3] = target: the molecule itself; assay: gel filtration (Superdex 200), self-association, Example 4
[4] = target: the molecule itself; assay: DSG crosslinking, SDS-PAGE, self-association
From the text: as §1
Upon amino acid sequence analysis of P1 WT and φW39 WT, we noticed that P1 Ref contains Cys11 while φW39 Ref contains Arg11.

B1: P1 wild type Ref (bacteriophage P1 full length Ref protein) (enzyme)
chain: MKTIEQKIEQCRKWQKAARERAIARQREKLADPVWRESQYQKMRDTLDRRIAKQKERPPASKTRKSAVKIKSRGLKGRTPTAEERRIANALGALPCIACYMHGVISNEVSLHHIAGRTAPGCHKKQLPLCRWHHQHAAPAEVREKYPWLVPVHADGVVGGKKEFTLLNKSEMELLADAYEMANIMH
notes: Full-length native protein purified from E. coli; The dimer is reported to be held by a Cys11 disulfide bond
binding result [1]: binds

B2: φW39 R11C Ref (enzyme)
chain: MKTIEQKLEQCREWQKAARERAIARQREKLADPAWRESQYQKMRDSIDRRIAKQKERPPASKTRKSAVKIKSRGLKGRTPTAEERTIANALGTLPCIACYMHGVISEEVSLHHISGRTAPGCHKKQLPLCRWHHQHAAPAEVREKYPWLVPVHADGVVGGKKEFTLLNKSEMELLADAYEMANIMH
notes: Plasmid pEAW933; Full-length variant
binding result [2]: binds

B3: φW39 wild type Ref (φW39 phage full length Ref protein) (enzyme)
chain: MKTIEQKLEQRREWQKAARERAIARQREKLADPAWRESQYQKMRDSIDRRIAKQKERPPASKTRKSAVKIKSRGLKGRTPTAEERTIANALGTLPCIACYMHGVISEEVSLHHISGRTAPGCHKKQLPLCRWHHQHAAPAEVREKYPWLVPVHADGVVGGKKEFTLLNKSEMELLADAYEMANIMH
notes: Full-length native protein
apparent molecular mass by gel filtration [3]: 35 kDa

B4: φW39 ΔN21 Ref (enzyme)
chain: AIARQREKLADPAWRESQYQKMRDSIDRRIAKQKERPPASKTRKSAVKIKSRGLKGRTPTAEERTIANALGTLPCIACYMHGVISEEVSLHHISGRTAPGCHKKQLPLCRWHHQHAAPAEVREKYPWLVPVHADGVVGGKKEFTLLNKSEMELLADAYEMANIMH
notes: Plasmid pEAW886; The construct starts with a Met codon from the NdeI site
apparent molecular mass by gel filtration [3]: 33.6 kDa

B5: φW39 ΔN47 Ref (enzyme)
chain: DRRIAKQKERPPASKTRKSAVKIKSRGLKGRTPTAEERTIANALGTLPCIACYMHGVISEEVSLHHISGRTAPGCHKKQLPLCRWHHQHAAPAEVREKYPWLVPVHADGVVGGKKEFTLLNKSEMELLADAYEMANIMH
notes: Plasmid pEAW865; The construct starts with a Met codon from the NdeI site
apparent molecular mass by gel filtration [3]: 27.6 kDa

B6: P1 ΔN76 Ref (enzyme)
chain: GRTPTAEERRIANALGALPCIACYMHGVISNEVSLHHIAGRTAPGCHKKQLPLCRWHHQHAAPAEVREKYPWLVPVHADGVVGGKKEFTLLNKSEMELLADAYEMANIMH
notes: Purified as in Gruenig et al 2011; The range 77-186 is derived from the name ΔN76
binding result [4]: no binding
